Reference: the supplement of paper PMC7877785
± gives the uncertainty stated by the source.

Assay: self-splicing fitness, log relative to wild type (ln ratio); higher = more splicing; Tetrahymena group I intron in knt gene, E. coli kanamycin selection, DiMSum; sequences stand for … in CUCUCU…GGAGGGAAAAGUUAUCAGGCAUGCACCUGGUAGCUAGUCUUUAAACCAAUAGAUUGCAUCGGUUUAAAAGGCAAGACCGUCAAAUUGCGGGAAAGGGGUCAACAGCCGUUCAGUACCAAGUCUCAGGGGAAACUUUGAGAUGGCCUUGCAAAGGGUAUGGUAAUAAGCUGACGGACAUGGUCCUAACCACGCAGCCAAGUCCUAAGUCAACAGAUCUUCUGUUGAUAUGGAUGCAGUUCACAGACUAAAUGUCGGUCGGGGAAGAUGUAUUCUUCUCAUAAGAUAUAGUCGGACCUCUCCUUAAUGGGAGCUAGCGGAUGAAGUGAUGCAACACUGGAGCCGCUGGGAACUAAUUUGUAUGCGAAAGUAUAUUGAUUAGUUUUGGAGUACUCGUGGUCG
Summary of the method: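 Library with all eight P1ex-region intron nucleotides randomised, intron inside the knt kanamycin-resistance gene on pET-22b(+), in E. coli BL21(DE3). Cells grew overnight at 37°C or 30°C on LB agar with or without 25 μg/mL kanamycin (plus 100 μg/mL carbenicillin, 50 μM IPTG, 0.2% rhamnose), in six replicate transformations. Pooled colonies were amplicon-sequenced on Illumina HiSeq 2500. DiMSum fitness is the error-weighted combination of wild-type-normalised replicate fold changes, kanamycin versus none.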

Sequence | self-splicing fitness (ln) (30 °C) | self-splicing fitness (ln) (37 °C)
GCGGAGCAAUAUUACGCAUC | -4.01 ± 0.27 | -1.81 ± 0.35
CAUAAGCAAUAUUACGGUGG | -1.24 ± 0.075 | -0.683 ± 0.088
GCGGAGCAAUAUUACGGAGA | -2.07 ± 0.2 | -1.71 ± 0.41
ACCAAGCAAUAUUACGGGCC | -2.26 ± 0.085 | -2.07 ± 0.096
GACUAGCAAUAUUACGUAUA | -1.01 ± 0.11 | -0.555 ± 0.13
AAUCAGCAAUAUUACGAAAU | -0.801 ± 0.066 | 0.368 ± 0.092
GGUCAGCAAUAUUACGUUCC | -0.328 ± 0.24 | -0.643 ± 0.28
UUUCAGCAAUAUUACGGGAU | -2.73 ± 0.12 | -1.64 ± 0.13
GAUCAGCAAUAUUACGGCAU | -0.0116 ± 0.068 | 0.0262 ± 0.092
UUGAAGCAAUAUUACGGACG | -0.0419 ± 0.12 | 0.902 ± 0.15
UACUAGCAAUAUUACGCUCA | -0.532 ± 0.095 | 0.288 ± 0.13
UGUAAGCAAUAUUACGCUGU | -3.43 ± 0.18 | -2.07 ± 0.18
UCAAAGCAAUAUUACGCCCG | -1.66 ± 0.2 | -0.884 ± 0.27
UCAGAGCAAUAUUACGUUAU | -2.84 ± 0.19 | -3.42 ± 0.4
UUCCAGCAAUAUUACGCAAG | -1.62 ± 0.07 | -0.644 ± 0.09
UGCUAGCAAUAUUACGAUCG | 0.18 ± 0.12 | 0.439 ± 0.23
CCCCAGCAAUAUUACGUAUC | -3.88 ± 0.21 | -3.84 ± 0.21
CCACAGCAAUAUUACGAAAA | -3.8 ± 0.27 | -2.58 ± 0.22
GACGAGCAAUAUUACGUUAG | -3.02 ± 0.17 | -2.56 ± 0.19
CGAAAGCAAUAUUACGGGCA | -1.85 ± 0.11 | -0.138 ± 0.1
UUGAAGCAAUAUUACGUCGG | 0.235 ± 0.075 | -0.024 ± 0.084
UGAUAGCAAUAUUACGGGAA | -2.65 ± 0.2 | -2.44 ± 0.21
GCACAGCAAUAUUACGUUAA | -1.04 ± 0.055 | -0.544 ± 0.065
AUUAAGCAAUAUUACGUCUC | -2.06 ± 0.12 | -1.4 ± 0.19

Sequence | self-splicing fitness (ln) (30 °C) | self-splicing fitness (ln) (37 °C)
UUUAAGCAAUAUUACGAGGA | -1.85 ± 0.13 | -1.22 ± 0.15
GAAGAGCAAUAUUACGGUCG | -3.24 ± 0.13 | -1.61 ± 0.15
UUUAAGCAAUAUUACGAGAA | -1.62 ± 0.33 | -0.298 ± 0.28
ACAGAGCAAUAUUACGAUUG | -2.95 ± 0.26 | -3.3 ± 0.3
GAGCAGCAAUAUUACGGGAG | -3.68 ± 0.32 | -2.9 ± 0.35
GCCAAGCAAUAUUACGUCGA | -2.34 ± 0.16 | -1.29 ± 0.14
CACCAGCAAUAUUACGAAUU | -3.18 ± 0.15 | -2.92 ± 0.17
GUGGAGCAAUAUUACGAUAC | -1.47 ± 0.26 | -0.631 ± 0.42
UAUAAGCAAUAUUACGUAAC | -3.16 ± 0.27 | 0.142 ± 0.22
GUGUAGCAAUAUUACGAUUC | 0.325 ± 0.094 | -0.738 ± 0.088
AGCCAGCAAUAUUACGCUUG | -3.52 ± 0.17 | -1.58 ± 0.17
UAACAGCAAUAUUACGACCA | -0.808 ± 0.08 | 0.224 ± 0.11
GACUAGCAAUAUUACGCUAG | -2.44 ± 0.31 | -1.16 ± 0.26
GUCGAGCAAUAUUACGUUUA | -2.37 ± 0.15 | -1.87 ± 0.15
CGUGAGCAAUAUUACGACAU | -3.809 ± 0.03 | -2.19 ± 0.039
GUUCAGCAAUAUUACGCCCG | -1.59 ± 0.22 | -0.196 ± 0.28
GCUCAGCAAUAUUACGGGAC | -0.927 ± 0.27 | -0.928 ± 0.26
GCUAAGCAAUAUUACGGGGU | -2.06 ± 0.18 | -3.04 ± 0.25
UGCGAGCAAUAUUACGUCGU | -3.64 ± 0.25 | -3.4 ± 0.37
AAUAAGCAAUAUUACGUUGC | -3.52 ± 0.19 | -2.53 ± 0.2
GAAGAGCAAUAUUACGUAGU | -2.69 ± 0.13 | -2.88 ± 0.2
CACUAGCAAUAUUACGCGGA | -3.19 ± 0.25 | -1.85 ± 0.18
ACCCAGCAAUAUUACGACGA | -0.509 ± 0.084 | -0.36 ± 0.086
